In publication PMC10770755, “Effects of specific disease mutations in non-muscle myosin 2A on its structure and function” (The Journal of Biological Chemistry, 2023):

Target: the molecule itself
Assay: negative stain electron microscopy of filaments; self-assembly into filaments on dilution into low-salt buffer (10 mM phosphate, pH 7.4, 150 mM NaCl, 0.5 mM TCEP), on ice, 200 to 500 nM protein; stained with 1% uranyl acetate

| Protein | binding result |
| --- | --- |
| GST-LMM, wild type (light meromyosin of human non-muscle myosin 2A heavy chain, residues 1212-1960) (domain or fragment, UniProt P35579 1212-1960, looked up, pGEX-6P-1 adds GST and a PreScission site at the N-terminus; GST kept for EM; also called WT GST-LMM; source: E. coli Rosetta 2, purified (Glutathione Sepharose 4B); not shown: GST, N-terminal, kept) KANLEKAKQTLENERGELANEVKVLLQGKGDSEHKRKKVEAQLQELQVKFNEGERVRTELADKVTKLQVELDNVTGLLSQSDSKSSKLTKDFSALESQLQDTQELLQEENRQKLSLSTKLKQVEDEKNSFREQLEEEEEAKHNLEKQIATLHAQVADMKKKMEDSVGCLETAEEVKRKLQKDLEGLSQRHEEKVAAYDKLEKTKTRLQQELDDLLVDLDHQRQSACNLEKKQKKFDQLLAEEKTISAKYAEERDRAEAEAREKETKALSLARALEEAMEQKAELERLNKQFRTEMEDLMSSKDDVGKSVHELEKSKRALEQQVEEMKTQLEELEDELQATEDAKLRLEVNLQAMKAQFERDLQGRDEQSEEKKKQLVRQVREMEAELEDERKQRSMAVAARKKLEMDLKDLEAHIDSANKNRDEAIKQLRKLQAQMKDCMRELDDTRASREEILAQAKENEKKLKSMEAEMIQLQEELAAAERAKRQAQQERDELADEIANSSGKGALALEEKRRLEARIAQLEEELEEEQGNTELINDRLKKANLQIDQINTDLNLERSHAQKNENARQQLERQNKELKVKLQEMEGTVKSKYKASITALEAKIAQLEEQLDNETKERQAACKQVRRTEKKLKDVLLQVDDERRNAEQYKDQADKASTRLKQLKRQLEEAEEEAQRANASRRKLQRELEDATETADAMNREVSSLKNKLRRGDLPFVVPRRMARKGAGDGSDEEVDGKADGAEAKPAE | binds |
| GST-LMM D1424N (domain or fragment, human, UniProt P35579 1212-1960, looked up, MYH9 disease mutation; source: E. coli Rosetta 2, purified (Glutathione Sepharose 4B); not shown: GST, N-terminal, kept) KANLEKAKQTLENERGELANEVKVLLQGKGDSEHKRKKVEAQLQELQVKFNEGERVRTELADKVTKLQVELDNVTGLLSQSDSKSSKLTKDFSALESQLQDTQELLQEENRQKLSLSTKLKQVEDEKNSFREQLEEEEEAKHNLEKQIATLHAQVADMKKKMEDSVGCLETAEEVKRKLQKDLEGLSQRHEEKVAAYDKLEKTKTRLQQELDNLLVDLDHQRQSACNLEKKQKKFDQLLAEEKTISAKYAEERDRAEAEAREKETKALSLARALEEAMEQKAELERLNKQFRTEMEDLMSSKDDVGKSVHELEKSKRALEQQVEEMKTQLEELEDELQATEDAKLRLEVNLQAMKAQFERDLQGRDEQSEEKKKQLVRQVREMEAELEDERKQRSMAVAARKKLEMDLKDLEAHIDSANKNRDEAIKQLRKLQAQMKDCMRELDDTRASREEILAQAKENEKKLKSMEAEMIQLQEELAAAERAKRQAQQERDELADEIANSSGKGALALEEKRRLEARIAQLEEELEEEQGNTELINDRLKKANLQIDQINTDLNLERSHAQKNENARQQLERQNKELKVKLQEMEGTVKSKYKASITALEAKIAQLEEQLDNETKERQAACKQVRRTEKKLKDVLLQVDDERRNAEQYKDQADKASTRLKQLKRQLEEAEEEAQRANASRRKLQRELEDATETADAMNREVSSLKNKLRRGDLPFVVPRRMARKGAGDGSDEEVDGKADGAEAKPAE | binds |
| GST-LMM D1424G (domain or fragment, human, UniProt P35579 1212-1960, looked up, MYH9 disease mutation; source: E. coli Rosetta 2, purified (Glutathione Sepharose 4B); not shown: GST, N-terminal, kept) KANLEKAKQTLENERGELANEVKVLLQGKGDSEHKRKKVEAQLQELQVKFNEGERVRTELADKVTKLQVELDNVTGLLSQSDSKSSKLTKDFSALESQLQDTQELLQEENRQKLSLSTKLKQVEDEKNSFREQLEEEEEAKHNLEKQIATLHAQVADMKKKMEDSVGCLETAEEVKRKLQKDLEGLSQRHEEKVAAYDKLEKTKTRLQQELDGLLVDLDHQRQSACNLEKKQKKFDQLLAEEKTISAKYAEERDRAEAEAREKETKALSLARALEEAMEQKAELERLNKQFRTEMEDLMSSKDDVGKSVHELEKSKRALEQQVEEMKTQLEELEDELQATEDAKLRLEVNLQAMKAQFERDLQGRDEQSEEKKKQLVRQVREMEAELEDERKQRSMAVAARKKLEMDLKDLEAHIDSANKNRDEAIKQLRKLQAQMKDCMRELDDTRASREEILAQAKENEKKLKSMEAEMIQLQEELAAAERAKRQAQQERDELADEIANSSGKGALALEEKRRLEARIAQLEEELEEEQGNTELINDRLKKANLQIDQINTDLNLERSHAQKNENARQQLERQNKELKVKLQEMEGTVKSKYKASITALEAKIAQLEEQLDNETKERQAACKQVRRTEKKLKDVLLQVDDERRNAEQYKDQADKASTRLKQLKRQLEEAEEEAQRANASRRKLQRELEDATETADAMNREVSSLKNKLRRGDLPFVVPRRMARKGAGDGSDEEVDGKADGAEAKPAE | binds |
| GST-LMM E1841K (domain or fragment, human, UniProt P35579 1212-1960, looked up, MYH9 disease mutation; also called E1814K [sic]; source: E. coli Rosetta 2, purified (Glutathione Sepharose 4B); not shown: GST, N-terminal, kept) KANLEKAKQTLENERGELANEVKVLLQGKGDSEHKRKKVEAQLQELQVKFNEGERVRTELADKVTKLQVELDNVTGLLSQSDSKSSKLTKDFSALESQLQDTQELLQEENRQKLSLSTKLKQVEDEKNSFREQLEEEEEAKHNLEKQIATLHAQVADMKKKMEDSVGCLETAEEVKRKLQKDLEGLSQRHEEKVAAYDKLEKTKTRLQQELDDLLVDLDHQRQSACNLEKKQKKFDQLLAEEKTISAKYAEERDRAEAEAREKETKALSLARALEEAMEQKAELERLNKQFRTEMEDLMSSKDDVGKSVHELEKSKRALEQQVEEMKTQLEELEDELQATEDAKLRLEVNLQAMKAQFERDLQGRDEQSEEKKKQLVRQVREMEAELEDERKQRSMAVAARKKLEMDLKDLEAHIDSANKNRDEAIKQLRKLQAQMKDCMRELDDTRASREEILAQAKENEKKLKSMEAEMIQLQEELAAAERAKRQAQQERDELADEIANSSGKGALALEEKRRLEARIAQLEEELEEEQGNTELINDRLKKANLQIDQINTDLNLERSHAQKNENARQQLERQNKELKVKLQEMEGTVKSKYKASITALEAKIAQLEEQLDNETKERQAACKQVRRTKKKLKDVLLQVDDERRNAEQYKDQADKASTRLKQLKRQLEEAEEEAQRANASRRKLQRELEDATETADAMNREVSSLKNKLRRGDLPFVVPRRMARKGAGDGSDEEVDGKADGAEAKPAE | binds |
| GST-LMM D1447H (domain or fragment, human, UniProt P35579 1212-1960, looked up, MYH9 disease mutation; source: E. coli Rosetta 2, purified (Glutathione Sepharose 4B); not shown: GST, N-terminal, kept) KANLEKAKQTLENERGELANEVKVLLQGKGDSEHKRKKVEAQLQELQVKFNEGERVRTELADKVTKLQVELDNVTGLLSQSDSKSSKLTKDFSALESQLQDTQELLQEENRQKLSLSTKLKQVEDEKNSFREQLEEEEEAKHNLEKQIATLHAQVADMKKKMEDSVGCLETAEEVKRKLQKDLEGLSQRHEEKVAAYDKLEKTKTRLQQELDDLLVDLDHQRQSACNLEKKQKKFHQLLAEEKTISAKYAEERDRAEAEAREKETKALSLARALEEAMEQKAELERLNKQFRTEMEDLMSSKDDVGKSVHELEKSKRALEQQVEEMKTQLEELEDELQATEDAKLRLEVNLQAMKAQFERDLQGRDEQSEEKKKQLVRQVREMEAELEDERKQRSMAVAARKKLEMDLKDLEAHIDSANKNRDEAIKQLRKLQAQMKDCMRELDDTRASREEILAQAKENEKKLKSMEAEMIQLQEELAAAERAKRQAQQERDELADEIANSSGKGALALEEKRRLEARIAQLEEELEEEQGNTELINDRLKKANLQIDQINTDLNLERSHAQKNENARQQLERQNKELKVKLQEMEGTVKSKYKASITALEAKIAQLEEQLDNETKERQAACKQVRRTEKKLKDVLLQVDDERRNAEQYKDQADKASTRLKQLKRQLEEAEEEAQRANASRRKLQRELEDATETADAMNREVSSLKNKLRRGDLPFVVPRRMARKGAGDGSDEEVDGKADGAEAKPAE | binds |
| GST-LMM D1447G (domain or fragment, human, UniProt P35579 1212-1960, looked up, MYH9 disease mutation; source: E. coli Rosetta 2, purified (Glutathione Sepharose 4B); not shown: GST, N-terminal, kept) KANLEKAKQTLENERGELANEVKVLLQGKGDSEHKRKKVEAQLQELQVKFNEGERVRTELADKVTKLQVELDNVTGLLSQSDSKSSKLTKDFSALESQLQDTQELLQEENRQKLSLSTKLKQVEDEKNSFREQLEEEEEAKHNLEKQIATLHAQVADMKKKMEDSVGCLETAEEVKRKLQKDLEGLSQRHEEKVAAYDKLEKTKTRLQQELDDLLVDLDHQRQSACNLEKKQKKFGQLLAEEKTISAKYAEERDRAEAEAREKETKALSLARALEEAMEQKAELERLNKQFRTEMEDLMSSKDDVGKSVHELEKSKRALEQQVEEMKTQLEELEDELQATEDAKLRLEVNLQAMKAQFERDLQGRDEQSEEKKKQLVRQVREMEAELEDERKQRSMAVAARKKLEMDLKDLEAHIDSANKNRDEAIKQLRKLQAQMKDCMRELDDTRASREEILAQAKENEKKLKSMEAEMIQLQEELAAAERAKRQAQQERDELADEIANSSGKGALALEEKRRLEARIAQLEEELEEEQGNTELINDRLKKANLQIDQINTDLNLERSHAQKNENARQQLERQNKELKVKLQEMEGTVKSKYKASITALEAKIAQLEEQLDNETKERQAACKQVRRTEKKLKDVLLQVDDERRNAEQYKDQADKASTRLKQLKRQLEEAEEEAQRANASRRKLQRELEDATETADAMNREVSSLKNKLRRGDLPFVVPRRMARKGAGDGSDEEVDGKADGAEAKPAE | binds |
| GST-LMM V1516M (domain or fragment, human, UniProt P35579 1212-1960, looked up, MYH9 disease mutation; also called V1615M [sic]; source: E. coli Rosetta 2, purified (Glutathione Sepharose 4B); not shown: GST, N-terminal, kept) KANLEKAKQTLENERGELANEVKVLLQGKGDSEHKRKKVEAQLQELQVKFNEGERVRTELADKVTKLQVELDNVTGLLSQSDSKSSKLTKDFSALESQLQDTQELLQEENRQKLSLSTKLKQVEDEKNSFREQLEEEEEAKHNLEKQIATLHAQVADMKKKMEDSVGCLETAEEVKRKLQKDLEGLSQRHEEKVAAYDKLEKTKTRLQQELDDLLVDLDHQRQSACNLEKKQKKFDQLLAEEKTISAKYAEERDRAEAEAREKETKALSLARALEEAMEQKAELERLNKQFRTEMEDLMSSKDDMGKSVHELEKSKRALEQQVEEMKTQLEELEDELQATEDAKLRLEVNLQAMKAQFERDLQGRDEQSEEKKKQLVRQVREMEAELEDERKQRSMAVAARKKLEMDLKDLEAHIDSANKNRDEAIKQLRKLQAQMKDCMRELDDTRASREEILAQAKENEKKLKSMEAEMIQLQEELAAAERAKRQAQQERDELADEIANSSGKGALALEEKRRLEARIAQLEEELEEEQGNTELINDRLKKANLQIDQINTDLNLERSHAQKNENARQQLERQNKELKVKLQEMEGTVKSKYKASITALEAKIAQLEEQLDNETKERQAACKQVRRTEKKLKDVLLQVDDERRNAEQYKDQADKASTRLKQLKRQLEEAEEEAQRANASRRKLQRELEDATETADAMNREVSSLKNKLRRGDLPFVVPRRMARKGAGDGSDEEVDGKADGAEAKPAE | binds |
